The values that follow come from paper PMC11608337 (Nature Communications, 2024).

T1: RING domain of IRF2BP2 (residues 498-578) (UniProt Q7Z5L9 498-578)
T1 sequence (looked up): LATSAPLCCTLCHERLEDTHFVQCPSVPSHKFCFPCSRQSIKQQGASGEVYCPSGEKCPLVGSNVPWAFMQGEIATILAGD

The assay has as its target T1, RING domain of IRF2BP2 (residues …). The assay can be described thus: ITC. In general terms: Isothermal titration calorimetry measures the heat released or taken up as one component is titrated into another.
As for RSSVITSA [RxSVI motif-containing peptide of ZBTB16 (residues 285-292, RSSVITSA)], the Kd (usually the constant that tells how readily two partners part at equilibrium) turned out to be 12.6 µM. The molecule RGSVITSA [mouse ZBTB16 peptide (residues 285-292, RGSVITSA)] had a dissociation constant (Kd) of 16.8 µM. For the molecule GPGTPTRSSVITSARELHYG (peptide, UniProt Q05516 279-298, looked up) [ZBTB16-L (residues 279-298)], binding was put at a Kd of 7.21 µM. ERQQNRPSVITCASAG (peptide, UniProt Q14135 156-171, looked up) [VGLL4-L (residues 156-171)]: the “fold increase of binding affinity (KD) over the shorter peptide” value was 2.1 fold. For RSVLVHAG [NFAT1 peptide (residues 782-789, RSVLVHAG)], the Kd is 514 µM. Same read-out and setting: in the case of RASVIKKT [IRF2 peptide (residues 331-338, RASVIKKT)] it was 6.45 µM. RPDRETRASVIKKTSDITQ (peptide, UniProt P14316 325-343, looked up) [IRF2-L (residues 325-343)]: the “fold increase of binding affinity (KD) over the shorter peptide” value is 3.9 fold.
